{"source": "patent US20210070886", "key": {"[1]": {"target": "fluorescein-modified BSA encapsulated in octahedra-shaped DNA origami (OCs) (UniProt P02769)", "sequence (P02769 25-607)": "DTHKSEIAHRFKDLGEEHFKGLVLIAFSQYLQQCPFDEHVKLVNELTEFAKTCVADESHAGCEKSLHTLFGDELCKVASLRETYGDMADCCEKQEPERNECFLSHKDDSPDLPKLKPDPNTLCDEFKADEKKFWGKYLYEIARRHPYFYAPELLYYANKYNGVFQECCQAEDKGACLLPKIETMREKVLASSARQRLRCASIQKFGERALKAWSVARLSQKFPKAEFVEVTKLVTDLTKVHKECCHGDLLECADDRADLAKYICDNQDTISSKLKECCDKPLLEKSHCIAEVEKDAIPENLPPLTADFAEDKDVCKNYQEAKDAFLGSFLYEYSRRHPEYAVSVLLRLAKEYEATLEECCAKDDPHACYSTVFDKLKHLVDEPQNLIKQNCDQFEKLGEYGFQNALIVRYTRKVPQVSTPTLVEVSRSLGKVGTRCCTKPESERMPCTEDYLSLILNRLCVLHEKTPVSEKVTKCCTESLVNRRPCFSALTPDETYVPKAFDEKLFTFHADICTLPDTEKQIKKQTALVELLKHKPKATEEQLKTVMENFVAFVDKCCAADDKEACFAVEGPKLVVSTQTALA"}, "[2]": {"target": "fluorescein labeled bovine serum albumin (BSA), free in solution (UniProt P02769)", "sequence (P02769 25-607)": "as above"}}, "data": [{"substance": "trypsin", "values": [{"measurement": "fluorescence enhancement on tryptic digestion, BSA encapsulated inside PE2-coated OCs", "setting": "[1]", "value": "further reduced to ˜14% by PE2 coating on the OC surface"}, {"measurement": "fluorescence enhancement on tryptic digestion, BSA encapsulated inside bare OCs", "setting": "[1]", "value": "reduced to ˜40% by protein encapsulation inside the OCs"}, {"measurement": "fluorescence enhancement of fluorescein labeled BSA in solution on tryptic digestion", "setting": "[2]", "value": "an 85% increase in the fluorescence intensity"}]}]}
